Measurements reported in patent US20050048477A1 (published 2005).

Molecular target: T1, Gal80-Fpr1p fusion (yeast, UniProt P04387 1-435; P20081 1-114)
T1 construct: Encoded on a pRS416 backbone; also called pGP82; not shown: 2 HA tags derived from oligonucleotides GANG33/34 (DNA only)
T1 sequence (looked up): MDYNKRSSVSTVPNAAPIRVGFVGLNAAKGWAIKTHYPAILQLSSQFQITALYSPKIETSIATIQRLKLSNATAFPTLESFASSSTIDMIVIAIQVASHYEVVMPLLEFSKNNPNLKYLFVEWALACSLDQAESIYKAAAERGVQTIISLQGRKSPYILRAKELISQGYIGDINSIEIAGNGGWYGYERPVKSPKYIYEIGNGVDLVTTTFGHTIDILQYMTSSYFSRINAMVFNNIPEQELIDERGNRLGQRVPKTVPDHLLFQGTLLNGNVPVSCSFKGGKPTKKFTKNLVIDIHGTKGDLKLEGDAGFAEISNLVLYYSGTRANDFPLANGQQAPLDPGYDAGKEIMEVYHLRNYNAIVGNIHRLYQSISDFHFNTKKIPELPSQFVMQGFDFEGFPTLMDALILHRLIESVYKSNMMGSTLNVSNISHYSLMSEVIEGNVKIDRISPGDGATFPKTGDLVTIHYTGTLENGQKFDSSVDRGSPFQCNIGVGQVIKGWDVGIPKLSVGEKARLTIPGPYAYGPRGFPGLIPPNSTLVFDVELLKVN
Experiment: 80-Trap assay in yeast, HIS3 reporter growth without galactose
Procedure: FIG. 4A illustrates FK506-dependent HIS3 reporter expression. Gal80-Fpr1 designates the Gal80-Fpr1p fusion. Myr-Cna1 designates the plasma membrane targeted Cna1p. Myr-Cmd1 is a plasma membrane targeted calmodulin and is used as a control. The nutrient agar plates used here lacked histidine, tryptophan and uracil and contained 0.5% galactose/3% glycerol/2% lactic acid as carbon source. FK506 was used at 0.25 μg/mL where indicated. Identical results were obtained using nutrient agar lacking galactose (data not shown). […] The nutrient agar plate lacked histidine, tryptophan and uracil and contained 3% glycerol/2% lactic acid as carbon source. Galactose was used at 0.5% where indicated. The lack of tryptophan and uracil are required for selection and maintenance in yeast of the two plasmids Gal80-Fpr1p and Myr-Cna1p, and the lack of histidine is to provide a selective assay for the protein-protein interaction that activates the HIS3 reporter gene carried on a yeast chromosome.
FK506 was used to trigger the interaction between a Gal80-Fpr1p fusion and plasma membrane-localized Myr-Can1p. […] Induction of the galactose-inducible HIS3 reporter gene was assayed. […] It has been reported that Fpr1p also interacts with Hom3p, the aspartokinase, in the absence of FK506 in a yeast two-hybrid assay (Alarcon and Heitman, 1997, Mol. Cell Bio., 17: 5968-5975).

binding result: binds
B1: Myr-Hom3p (other, yeast)
chain: MGCTVSTQTIGDESDPMPMDFQPTSSHSNWVVQKFGGTSVGKFPVQIVDDIVKHYSKPDGPNNNVAVVCSARSSYTKAEGTTSRLLKCCDLASQESEFQDIIEVIRQDHIDNADRFILNPALQAKLVDDTNKELELVKKYLNASKVLGEVSSRTVDLVMSCGEKLSCLFMTALCNDRGCKAKYVDLSHIVPSDFSASALDNSFYTFLVQALKEKLAPFVSAKERIVPVFTGFFGLVPTGLLNGVGRGYTDLCAALIAVAVNADELQVWKEVDGIFTADPRKVPEARLLDSVTPEEASELTYYGSEVIHPFTMEQVIRAKIPIRIKNVQNPLGNGTIIYPDNVAKKGESTPPHPPENLSSSFYEKRKRGATAITTKNDIFVINIHSNKKTLSHGFLAQIFTILDKYKLVVDLISTSEVHVSMALPIPDADSLKSLRQAEEKLRILGSVDITKKLSIVSLVGKHMKQYIGIAGTMFTTLAEEGINIEMISQGANEINISCVINESDSIKALQCIHAKLLSERTNTSNQFEHAIDERLEQLKRLGI
modifications: N-myristoylation at the N-terminal signal
notes: Encoded on a pRS424 backbone under the ADH2 promoter; also called pGP130; not shown: CFP amplified from pDH3
